Laboratory results: article PMC5792442, “A comparative Study of Aptasensor Vs Immunosensor for Label-Free PSA Cancer Detection on GQDs-AuNRs Modified Screen-Printed Electrodes”

B1: PSA-Aptamer (ssDNA)
DNA: ATTAAAGCTCGCCATCAAATAGC
B2: random single strand DNA (ssDNA)
DNA: TTTTGCCATCGGGGCCATGTTCAA

Columns and labels:
[1] = target: T1, Prostate specific antigen (PSA) (UniProt P07288 25-261); test: electrochemical impedance spectroscopy, CV and DPV (immobilized aptamer); 5 mM [Fe(CN)6]3-/4-; also EIS without redox probe; LOD 0.14 ng/mL; 0.1 M PBS pH 7.4, with or without 5 mM [Fe(CN)6]3-/4-; PSA 0-11.06 ng/mL; temperature not stated; settings: protein: commercial
[2] = target: T1, Prostate specific antigen (PSA); test: electrochemical impedance spectroscopy (immobilized DNA); Rct unchanged with PSA; 0.1 M PBS pH 7.4, with or without 5 mM [Fe(CN)6]3-/4-; PSA 0-11.06 ng/mL; temperature not stated; settings: protein: commercial

T1 sequence (P07288 25-261): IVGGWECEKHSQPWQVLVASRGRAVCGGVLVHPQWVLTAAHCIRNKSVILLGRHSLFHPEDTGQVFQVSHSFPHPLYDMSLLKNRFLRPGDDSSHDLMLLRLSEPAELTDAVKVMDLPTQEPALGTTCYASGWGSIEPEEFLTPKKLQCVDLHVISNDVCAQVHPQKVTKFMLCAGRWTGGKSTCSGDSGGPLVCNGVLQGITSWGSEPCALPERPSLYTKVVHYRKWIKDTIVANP

Row | Binder | binding result [1] | binding result [2]
1 | B1 | binds | 
2 | B2 |  | no binding
